Laboratory results from patent US6399344B1, “Isolated proteins having retinol dehydrogenase activity, and which associate with retinol binding receptors” (Ludwig Institute for Cancer Research, priority 1994, dated 2002).

T1: p63 (Bos taurus, UniProt Q28175)
T1 construct: RPE-membrane proteins were then solubilized in phosphate-buffered saline; from tissue; host or cells: bovine retinal pigment epithelium (RPE) membrane fraction, CHAPS-solubilized, gel-filtered, 125I-labelled
T1 sequence (Q28175 2-533 limits assumed): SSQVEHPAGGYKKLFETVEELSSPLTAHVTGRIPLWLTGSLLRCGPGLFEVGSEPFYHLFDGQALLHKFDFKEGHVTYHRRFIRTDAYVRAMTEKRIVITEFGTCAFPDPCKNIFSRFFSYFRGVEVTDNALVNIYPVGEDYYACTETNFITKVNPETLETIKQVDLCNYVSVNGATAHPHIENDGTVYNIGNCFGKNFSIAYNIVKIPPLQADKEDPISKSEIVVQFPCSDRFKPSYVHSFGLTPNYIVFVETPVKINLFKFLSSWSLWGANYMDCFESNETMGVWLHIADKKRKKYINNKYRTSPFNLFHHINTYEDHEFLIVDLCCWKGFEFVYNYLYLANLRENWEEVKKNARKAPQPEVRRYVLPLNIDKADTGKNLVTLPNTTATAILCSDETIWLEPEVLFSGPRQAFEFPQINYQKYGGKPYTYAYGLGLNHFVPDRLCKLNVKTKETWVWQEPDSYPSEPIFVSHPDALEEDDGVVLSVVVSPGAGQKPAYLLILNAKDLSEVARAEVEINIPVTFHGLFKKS


Key:
p63 = molecular target: T1, p63; assay: Immunoprecipitation of radiolabelled RPE-membrane proteins with mAb A52 / rabbit antisera to p63, SDS-PAGE; format: binding; details: solubilized bovine RPE membranes, immunoprecipitation with mAb A52 or rabbit antisera to p63
Description: Bovine RPE-cells were isolated and membrane fractions were prepared as described in Bavik et al, J. Biol. Chem. 266:[…] (1991) incorporated by reference. RPE-membrane proteins were then solubilized in phosphate-buffered saline (PBS) (20 mM sodium phosphate, PH 7.2, containing 150 mM NaCl), containing 1% 3-[(3-cholamido-propyl) -dimethylammonio] -1-propane sulfonic acid (CHAPS) at 1 mg of total membrane protein/ml of buffer. Remaining material was removed by ultracentrifugation at 100,000×g for 1 hour. Next, 500 ul aliquots of the solubilized membranes were subjected to gel filtration on a Sepharose 6 column equilibrated in PBS containing 1% CHAPS. The column was operated at a flow rate of 0.2 ml/min and 500 ul fractions collected. Proteins eluted in fractions corresponding to globular proteins of Mr 150,000 to 400,000 were then radiolabelled with Na^125I using the well-known Chloramin T procedure. […]
Aliquots of the radiolabelled proteins were then diluted in PBS containing 1% CHAPS and 1% bovine serum albumin and subsequently subjected to immunoprecipitation using the mAb A52 to p63 (5 ug per incubation) or using two polyclonal rabbit antisera to p63 (3 ul of serum per incubation) See Bavik et al., J. Biol. Chem. 267:23035-23042 (1992). Non-specific immunoprecipitation was monitored in parallel incubations using an unrelated mAb and preimmune rabbit serum. […]

[1] = Retinol dehydrogenase activity of p32 in microsomal fractions of transfected COS-cells, HPLC; format: biochemical, bovine
Description: Specifically, the EcoRI—insert of pλ321 was cloned into the EcoR1-digested eucaryotic expression vector pSG5. See Green et al., Nucl. Acid Res. 16:39 (1988). COS-cells were maintained in Dulbecco's minimal essential medium supplemented with 10% fetal bovine serum, 2mM glutamine and antibiotics. The cells were seeded into 60 mm petri dishes (4×10^5 cells per dish) and transfected with 5 ug of plasmid per dish using DEAE dextran. Control cells were transfected with equal amounts of the parental vector alone. After treatment with 10% DMSO for 2 minutes, the cells were incubated for 72-96 hours, and then harvested by scraping the dishes with a rubber policeman, and the cells thereafter collected by low speed centrifugation. The collected cell pellets were next resuspended in hypotonic buffer (10 mM Tris-HCl, pH 7.5 containing 1mM phenyl-methylsufonyl fluoride), put on ice for 20 minutes, and then homogenized using a Dounce homogenator. Unbroken cells and debris were removed by centrifugation (3000×g)for 15 minutes. Microsomes were subsequently collected by ultra-centrifugation at 100,000×g for 1 hour; membrane pellets were stored at −80° C. until further analyzed.
Next, some of the enzymatic properties of p32 expressed in COS-cells were determined in a manner similar to that as described in the study of 11-cis-retinol dehydrogenase activity in microsomal fractions of RPE cells. See Saari et al., Anal. Biochem 213:[…] (1993).
In particular, enzymatic activity of p32 was assayed by incubating the microsomal fractions from the aforementioned transfected cells, and from control cells lacking p32, with varying combinations of the different stereo isomeric substrates, i.e., 11-cis-retinol or all-trans-retinol, in the presence of either cofactor NAD+ or NADP.
To assay for p32 activity in transfected cells, the final concentration of 11-cis-retinol and all-trans-retinol (obtained from Sigma Chemical Co.) in the incubations was reduced to 100 uM. Twenty ug of total membrane protein from COS-cells expressing p32 or from control cells were used in each incubation, and thereafter a 30 minute incubation at 37° C. in the presence or absence of NAD+ or NADP followed. Reaction mixtures were then extracted with n-hexane, and organic phases removed and dried under argon. The dried organic phases were then separately dissolved in ethanol and aliquots were analyzed on a normal phase silica HPLC column developed with n-hexane containing 4% dioxane at 1 ml per minute. See Saari et al. J. Biol. Chem. 257:13329-13333 (1982). Effluent was monitored at 330 nm. Under these conditions, 11-cis-retinaldehyde and 11-cis retinol eluted at 7 minutes and 22.5 minutes, respectively, and all-trans-retinaldehyde and all-trans retinol eluted at 8 minutes and 23 minutes, respectively.

[2] = Retinol dehydrogenase activity in membranes of baculovirus-infected Sf9 cells, reversed phase HPLC; format: biochemical, murine
Description: In order to generate a protein from a eukaryotic system, a 1.2 kilobase EcoRI fragment of the SEQ ID NO: 35 plasmid described supra was subcloned into a baculovirus expression vector, using known methods. Then, the vector was used to transfect Spodoptera frugiperda (“Sf9”) cells, again using known methods. Recombinant baculoviruses were then amplified by several rounds of amplification, and were then used in fresh Sf9 cells. A parallel set of experiments were also carried out, but using recombinant virus containing an unrelated gene, whose expression product had no retinol dehydrogenase activity.
Expressed protein was then assessed for enzyme activity. In brief, membranes equivalent to 25 ug of total membrane protein from infected cells were incubated in phosphate buffered saline (PBS), containing 100 uM of 9-cis retinol, or all-trans retinol. Final volumes of incubated materials were 200 ul. Either cofactor NAD+ or cofactor NADP was also added, to a final concentration of 200 uM. The mixture was incubated for 20 minutes at 37° C., after which alkaline ethanol was added. The mixture was then extracted with 2.0 ml of n-hexane. The organic phase was then removed and dried under argon. Dried phases were dissolved in ethanol, and aliquots were analyzed by reversed phase HPLC, using a C18 column, and a mobile phase of acetonitrile/water (85:15 v/v). Elution was at 1.0 ml/min, with effluent being monitored at 350 nm.

[3] = experiments not elaborated upon

coprecipitation with p63 (binding to p63) (p63) | Molecule | 11-cis-retinol dehydrogenase activity (formation of 11-cis-retinaldehyde) ([1]; 100 uM 11-cis-retinol, cofactor NAD+, 30 minute at 37° C.) | formation of all-trans retinaldehyde from all-trans retinol ([1]; 100 uM all-trans-retinol, 30 minute at 37° C.) | 11-cis-retinol dehydrogenase activity ([1]; cofactor NADP) | 9-cis retinol dehydrogenase activity ([1]; further experiments, no details) | oxidation of 9-cis retinol, efficiency relative to mock infected cells ([2]; 100 uM 9-cis retinol, 20 minutes at 37° C.) | 9-cis retinaldehyde formation ([2]; 100 uM 9-cis retinol, cofactor NADP 200 uM) | 11-cis RDH activity [2, 3] | 13-cis RDH activity [2, 3]
coprecipitated | p32: 32 kDa membrane associated bovine RPE protein that complexes with p63; stereo specific 11-cis-retinol dehydrogenase (SEQ ID NO: 10) (protein) MWLPLLLGVLLWAALWLLRDRQCLPASDAFIFITGCDSGFGRLLALRLDQRGFRVLASCLTPSGAEDLQRVASSRLHTTLLDVTDPQSIRQAVKWVETHVGEAGLFGLVNNAGVAGIIGPTPWQTREDFQRVLNVNTLGPIGVTLALLPLLLQARGRVINITSVLGRLAANGGGYCVSKFGLEAFSDSLRRDVAPFGVRVSIVEPGFFRTPVTNLETLEDTLQACWARLPPATQALYGEAFLTKYLRVQQRIMNMICDPDLAKVSRCLEHALTARHPRTRYSPGWDAKLLWLPASYLPARLVDAVLAWVLPKPAQTVY | active | no significant formation of all-trans retinaldehyde | not enzymatically-active | has 9-cis retinol dehydrogenase activity |  |  |  | 
 | protein encoded by SEQ ID NO: 35: murine liver membrane associated protein of about 34 kilodaltons with 9-cis, 11-cis and 13-cis retinol dehydrogenase activity (protein) MWLPLLLGALLWAVLWLLRDRQSLPASDAFIFITGCDSGFGRLLALQLDQKGFQVLAGCLTPSGAEDLQQMASSRLHTTLLDITDPQNVQQVAKWVKTRVGETGLFGLVNNAGVAGIIGPTPWLTQDDFQRVLSVNTLGPIGVTLALLPLLQQARGRVVNITSVLGRIAANGGGYCVSKFGLEAFSDSLRRDMAPFGVQVSIVEPGFFRTPVTNLESLESTLKACWARLPPAIQAHYGEAFLDTYLRVQRRIMNLICDPELTKVTSCLEHALTARHPRTRYSPGWDAKLLWLPASYLPARVVDAVLTWILPRPAQSVS |  |  |  |  | 8-10 times | Background levels | observed | 13-cis RDH activity
